# Results taken from patent US20260042850A1.
# Numbering of substitutions follows the chain as printed.
# B1: 09A12 (antibody, IgG4, V domains shown)
# VH: QVQLVQSGAEVKKPGASVKVSCKASGYTFTSYSMHWVRQAPGQGLEWMGWINPNGGLTNYAQKFRGRVTMTRDTSTSTVYMELSSLRSEDTAVYYCAREEITTEFDYWGQGTLVTVSS
# VL: EIVLTQSPGTLSLSPGERATLSCRASQSVSSYAQSYLHWYQQKPGQAPRLLIYRASTRETGIPDRFSGSGSGTDFTLTISRLEPEDFAVYYCQQSKESPLTFGGGTKVEIK
# B2: 07A01 (antibody, IgG4, V domains shown)
# VH: B1 VH with T28I, S33T, T58A, N59S, R65Q, E99S, F105Q
# VL: B1 VL with S30D, Q34N, A55G, T60S
# Tests used:
# [1] = biological target: cynomolgus monkey C-MET His tag, monomeric (cynomolgus monkey); assay: SPR Biacore, IgG captured, monomeric C-MET-His analyte
# Sequence of cynomolgus monkey C-MET His tag, monomeric (cynomolgus monkey) (A0M8R7 25-932 S170N/I621T): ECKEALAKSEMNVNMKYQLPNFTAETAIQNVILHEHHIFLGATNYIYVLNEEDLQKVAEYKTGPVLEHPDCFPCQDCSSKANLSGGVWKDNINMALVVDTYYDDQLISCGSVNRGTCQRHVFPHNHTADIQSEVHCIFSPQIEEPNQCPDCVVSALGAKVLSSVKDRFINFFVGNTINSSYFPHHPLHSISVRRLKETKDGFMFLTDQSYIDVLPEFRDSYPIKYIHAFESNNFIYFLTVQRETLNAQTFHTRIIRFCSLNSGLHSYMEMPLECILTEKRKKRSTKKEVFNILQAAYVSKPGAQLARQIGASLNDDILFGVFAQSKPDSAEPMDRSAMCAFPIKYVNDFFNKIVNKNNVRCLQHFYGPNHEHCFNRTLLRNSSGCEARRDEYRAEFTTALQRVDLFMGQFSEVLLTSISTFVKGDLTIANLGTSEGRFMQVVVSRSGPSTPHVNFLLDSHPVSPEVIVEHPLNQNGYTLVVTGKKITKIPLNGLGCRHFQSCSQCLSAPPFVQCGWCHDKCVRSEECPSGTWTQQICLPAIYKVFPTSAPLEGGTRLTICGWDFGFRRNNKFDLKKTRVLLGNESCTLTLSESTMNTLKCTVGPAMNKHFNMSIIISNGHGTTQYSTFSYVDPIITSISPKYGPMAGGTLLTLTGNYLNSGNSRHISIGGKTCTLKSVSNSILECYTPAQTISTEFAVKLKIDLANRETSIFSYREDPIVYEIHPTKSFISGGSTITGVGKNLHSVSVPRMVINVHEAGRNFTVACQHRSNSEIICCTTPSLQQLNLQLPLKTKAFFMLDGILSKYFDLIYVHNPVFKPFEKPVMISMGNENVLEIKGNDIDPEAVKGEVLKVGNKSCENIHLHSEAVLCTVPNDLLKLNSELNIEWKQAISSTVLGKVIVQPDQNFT
# [2] = biological target: human C-MET His tagged, monomeric (human) (UniProt P08581); assay: as above
# Sequence of human C-MET His tagged, monomeric (human) (P08581 25-932): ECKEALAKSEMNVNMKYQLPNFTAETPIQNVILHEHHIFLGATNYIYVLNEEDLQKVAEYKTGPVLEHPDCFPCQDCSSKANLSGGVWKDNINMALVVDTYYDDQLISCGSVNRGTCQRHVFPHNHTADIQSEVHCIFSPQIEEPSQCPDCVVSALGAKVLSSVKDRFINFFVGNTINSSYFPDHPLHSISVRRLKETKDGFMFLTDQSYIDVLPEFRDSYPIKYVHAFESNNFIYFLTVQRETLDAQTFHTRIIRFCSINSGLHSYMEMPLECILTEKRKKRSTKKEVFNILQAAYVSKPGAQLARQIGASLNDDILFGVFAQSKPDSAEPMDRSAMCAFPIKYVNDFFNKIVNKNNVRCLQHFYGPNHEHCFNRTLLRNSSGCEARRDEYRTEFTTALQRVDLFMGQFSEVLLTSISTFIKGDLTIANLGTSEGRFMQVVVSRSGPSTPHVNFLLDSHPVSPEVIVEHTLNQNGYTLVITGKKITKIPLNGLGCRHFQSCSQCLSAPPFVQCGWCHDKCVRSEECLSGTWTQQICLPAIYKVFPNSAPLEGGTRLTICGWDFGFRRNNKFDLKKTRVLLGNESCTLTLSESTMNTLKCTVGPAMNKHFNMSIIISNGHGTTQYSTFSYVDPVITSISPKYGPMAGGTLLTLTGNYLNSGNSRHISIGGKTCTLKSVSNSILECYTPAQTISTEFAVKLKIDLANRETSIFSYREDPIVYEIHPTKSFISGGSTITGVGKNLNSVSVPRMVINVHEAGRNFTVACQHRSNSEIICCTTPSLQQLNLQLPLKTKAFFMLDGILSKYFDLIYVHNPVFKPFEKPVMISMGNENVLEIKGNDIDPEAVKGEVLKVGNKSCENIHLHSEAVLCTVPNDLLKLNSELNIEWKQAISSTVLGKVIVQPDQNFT
# [3] = biological target: human C-MET on stably transfected CHO-K1 cells (human) (UniProt P08581); assay: flow cytometry, C-MET CHO-K1 cells
# Sequence of human C-MET on stably transfected CHO-K1 cells (human) (P08581 25-1390 limits assumed): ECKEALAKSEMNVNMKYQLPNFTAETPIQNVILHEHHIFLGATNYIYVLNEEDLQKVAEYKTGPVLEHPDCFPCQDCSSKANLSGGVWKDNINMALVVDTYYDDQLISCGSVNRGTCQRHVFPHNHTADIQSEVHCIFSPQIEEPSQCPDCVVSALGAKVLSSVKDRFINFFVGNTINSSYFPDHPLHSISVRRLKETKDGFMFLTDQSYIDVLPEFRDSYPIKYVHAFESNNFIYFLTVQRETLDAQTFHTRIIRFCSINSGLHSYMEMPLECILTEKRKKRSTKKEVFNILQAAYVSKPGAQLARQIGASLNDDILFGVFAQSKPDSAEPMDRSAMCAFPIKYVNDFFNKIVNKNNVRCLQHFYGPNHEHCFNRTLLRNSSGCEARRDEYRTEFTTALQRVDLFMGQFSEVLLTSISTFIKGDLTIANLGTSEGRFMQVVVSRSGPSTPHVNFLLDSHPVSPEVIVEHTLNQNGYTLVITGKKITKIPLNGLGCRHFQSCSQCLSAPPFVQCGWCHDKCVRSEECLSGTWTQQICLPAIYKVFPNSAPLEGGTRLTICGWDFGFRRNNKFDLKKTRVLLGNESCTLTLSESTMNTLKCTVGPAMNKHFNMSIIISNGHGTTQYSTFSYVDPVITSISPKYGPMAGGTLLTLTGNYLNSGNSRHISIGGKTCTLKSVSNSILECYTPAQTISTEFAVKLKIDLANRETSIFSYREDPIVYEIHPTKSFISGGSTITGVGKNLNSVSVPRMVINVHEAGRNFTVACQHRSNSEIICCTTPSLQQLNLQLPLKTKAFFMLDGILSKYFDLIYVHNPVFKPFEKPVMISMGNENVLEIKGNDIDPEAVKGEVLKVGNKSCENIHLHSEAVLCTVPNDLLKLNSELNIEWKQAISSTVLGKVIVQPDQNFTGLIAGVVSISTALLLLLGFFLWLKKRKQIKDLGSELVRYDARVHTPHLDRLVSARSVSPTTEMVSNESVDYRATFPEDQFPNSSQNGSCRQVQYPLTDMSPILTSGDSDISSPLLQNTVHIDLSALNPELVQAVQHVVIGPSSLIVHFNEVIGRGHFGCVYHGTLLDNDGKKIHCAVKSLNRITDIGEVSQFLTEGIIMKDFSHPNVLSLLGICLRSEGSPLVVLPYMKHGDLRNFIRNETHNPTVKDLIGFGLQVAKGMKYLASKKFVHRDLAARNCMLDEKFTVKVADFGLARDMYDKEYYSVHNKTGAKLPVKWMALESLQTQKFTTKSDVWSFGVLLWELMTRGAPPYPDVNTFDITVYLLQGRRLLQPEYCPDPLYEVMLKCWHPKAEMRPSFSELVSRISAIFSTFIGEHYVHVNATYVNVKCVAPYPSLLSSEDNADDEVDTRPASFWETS
# [4] = biological target: cynomolgus monkey C-MET on stably transfected CHO-K1 cells (cynomolgus monkey); assay: flow cytometry, C-MET CHO-K1 cells
# Sequence of cynomolgus monkey C-MET on stably transfected CHO-K1 cells (cynomolgus monkey) (A0M8R7 25-1381 S170N/I621T limits assumed): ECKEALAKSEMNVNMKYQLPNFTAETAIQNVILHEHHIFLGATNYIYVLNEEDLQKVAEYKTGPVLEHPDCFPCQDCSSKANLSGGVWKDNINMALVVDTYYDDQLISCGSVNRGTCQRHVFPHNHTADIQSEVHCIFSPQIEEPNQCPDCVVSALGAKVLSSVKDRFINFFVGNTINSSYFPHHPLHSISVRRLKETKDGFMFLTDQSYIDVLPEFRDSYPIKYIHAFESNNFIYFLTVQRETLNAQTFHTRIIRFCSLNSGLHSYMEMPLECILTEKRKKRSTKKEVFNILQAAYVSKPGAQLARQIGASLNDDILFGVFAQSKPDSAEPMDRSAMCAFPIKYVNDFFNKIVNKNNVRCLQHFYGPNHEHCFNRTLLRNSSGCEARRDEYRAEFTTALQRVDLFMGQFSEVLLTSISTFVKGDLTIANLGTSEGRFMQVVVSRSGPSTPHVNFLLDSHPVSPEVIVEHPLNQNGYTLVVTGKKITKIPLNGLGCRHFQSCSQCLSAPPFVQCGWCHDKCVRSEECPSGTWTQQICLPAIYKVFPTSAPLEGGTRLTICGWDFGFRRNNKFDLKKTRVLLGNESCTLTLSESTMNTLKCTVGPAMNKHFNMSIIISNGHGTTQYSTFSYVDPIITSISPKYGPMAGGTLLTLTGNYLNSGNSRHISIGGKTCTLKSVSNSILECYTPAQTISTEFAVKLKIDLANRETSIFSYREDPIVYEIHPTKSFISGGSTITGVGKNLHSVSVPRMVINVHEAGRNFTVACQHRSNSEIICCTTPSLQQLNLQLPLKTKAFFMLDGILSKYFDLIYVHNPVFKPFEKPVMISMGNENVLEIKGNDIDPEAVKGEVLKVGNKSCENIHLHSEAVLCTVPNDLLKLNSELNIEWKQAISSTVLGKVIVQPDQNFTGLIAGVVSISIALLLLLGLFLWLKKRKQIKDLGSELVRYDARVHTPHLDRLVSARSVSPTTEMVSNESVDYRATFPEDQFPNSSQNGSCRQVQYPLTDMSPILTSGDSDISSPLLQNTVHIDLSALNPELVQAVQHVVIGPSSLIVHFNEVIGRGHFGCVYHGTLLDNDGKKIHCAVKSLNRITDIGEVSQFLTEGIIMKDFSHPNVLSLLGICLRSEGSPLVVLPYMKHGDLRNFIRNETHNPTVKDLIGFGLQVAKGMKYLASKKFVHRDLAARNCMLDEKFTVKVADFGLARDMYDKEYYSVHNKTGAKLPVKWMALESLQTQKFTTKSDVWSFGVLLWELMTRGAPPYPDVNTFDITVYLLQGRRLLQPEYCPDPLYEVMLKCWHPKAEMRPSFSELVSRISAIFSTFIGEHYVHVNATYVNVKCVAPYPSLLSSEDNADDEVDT
# [5] = biological target: cynomolgus monkey C-MET His tag, monomeric (cynomolgus monkey); assay: SPR Biacore, monomeric cyno against monomeric human C-MET
Binder,Kd [1] [nM],koff [1] [s⁻¹],kon [1] [M⁻¹ s⁻¹],Kd [2] [nM],koff [2] [s⁻¹],kon [2] [M⁻¹ s⁻¹],EC50 [3] [nM],"maximum MFI, fold over Isotype IgG4 background [3] [fold]",EC50 [4] [nM],"maximum MFI, fold over Isotype IgG4 background [4] [fold]","cyno C-MET affinity, fold of the human C-MET affinity [5] [fold]"
B1,1.5,0.00023,160000,2,0.00015,74000,2.33,> 10,0.28,> 10,
B2,0.17,1.6e-05,94000,0.24,1.3e-05,56000,7.44,> 10,1.74,> 10,< 2
